Broadly, the Km is the substrate concentration at which the rate is half of its maximum. Usually kcat stands for the number of substrate molecules converted per active site and unit of time at saturation. The term kcat/Km denotes the turnover number divided by the Michaelis constant.

In publication PMC10893412, “Genetic and Biochemical Characterization of AXC-2 from Achromobacter ruhlandii” (Pathogens, 2024) one finds Km, kcat and kcat/Km data, which are given here for one substance.

What all share (assay): purified protein
Holding throughout (settings): 25 mM sodium phosphate pH 7.5, 25 °C

The test system of data set [1] is CC1=C(C(=O)O)N2C(=O)[C@@H](NC(=O)[C@H](N)c3ccccc3)[C@H]2SC1.
Data set [2] relates to C[C@@H](O)[C@H]1C(=O)N2C(C(=O)O)=C(SCCN=CN)C[C@H]12. The class given is biochemical, Achromobacter ruhlandii. The text has this:
(§1) UV/Vis spectrophotometric hydrolysis, steady state on AXC-2

The subject of data set [3] is CO/N=C(\C(=O)N[C@@H]1C(=O)N2C(C(=O)[O-])=C(C[N+]3(C)CCCC3)CS[C@H]12)c1csc(N)n1. Format: biochemical, Achromobacter ruhlandii.
Text: as §1

The test system of data set [4] is C[C@@H](O)[C@H]1C(=O)N2C(C(=O)O)=C(S[C@@H]3CN[C@H](C(=O)N(C)C)C3)[C@H](C)[C@H]12. The class given is biochemical, Achromobacter ruhlandii.
Text: as §1

In data set [5] the test system is CC1(C)S[C@@H]2[C@H](NC(=O)Cc3ccccc3)C(=O)N2[C@H]1C(=O)O. Format: biochemical, Achromobacter ruhlandii.
Text: as §1

For data set [6], the system named is CC1(C)S[C@@H]2[C@H](NC(=O)[C@H](N)c3ccccc3)C(=O)N2[C@H]1C(=O)O. Format: biochemical, Achromobacter ruhlandii.
Text: as §1

For data set [7], the system named is CO/N=C(\C(=O)N[C@@H]1C(=O)N2C(C(=O)O)=C(CSc3nc(=O)c(=O)[nH]n3C)CS[C@H]12)c1csc(N)n1. The class given is biochemical, Achromobacter ruhlandii.
Text: as §1

In data set [8] the test system is O=C(Cc1cccs1)N[C@@H]1C(=O)N2C(C(=O)O)=C(/C=C/c3ccc([N+](=O)[O-])cc3[N+](=O)[O-])CS[C@H]12. Format: biochemical, Achromobacter ruhlandii.
Text: as §1

AXC-2 (Achromobacter ruhlandii): the Km in data set [1] stood at 74 ± 14 µM; in data set [2] it was 6.3 ± 0.8 µM; in data set [3], 872 ± 254 µM; in data set [4], 8 ± 1 µM; in data set [5], 1297 ± 409 µM; in data set [6] it was 344 ± 14 µM. Moreover, the figures for the Km in data set [7] and in data set [8] were 59 ± 6 µM and 202 ± 24 µM, respectively. Moreover, the kcat in data set [1] was 16 s⁻¹; in data set [2], 0.0364 ± 0.0009 s⁻¹; in data set [3] it was 0.29 ± 0.07 s⁻¹; in data set [4], 0.051 ± 0.002 s⁻¹; in data set [5] it was 125 ± 28 s⁻¹; in data set [6] it was 62 ± 5 s⁻¹. Further, the kcat in data set [7] is 5.5 ± 0.3 s⁻¹; in data set [8] it was 40 ± 3 s⁻¹. Moreover, the kcat/Km was 220000 M⁻¹ s⁻¹ in data set [1]; 5800 ± 900 M⁻¹ s⁻¹ in data set [2]; 300 ± 100 M⁻¹ s⁻¹ in data set [3]; 7000 ± 1000 M⁻¹ s⁻¹ in data set [4]; 100000 ± 50000 M⁻¹ s⁻¹ in data set [5]; 180000 ± 20000 M⁻¹ s⁻¹ in data set [6]. Also, the catalytic efficiency (kcat/Km) in data set [7] is 90000 ± 10000 M⁻¹ s⁻¹; in data set [8], 200000 ± 40000 M⁻¹ s⁻¹.
